Assay results from patent US10138466B2, “Compositions and methods for differentiating stem cells into cell populations comprising beta-like cells” (REGENERATIVE MEDICAL SOLUTIONS, INC., priority 2014, dated 2018).

System: hESCs
Test: Activin A alone in serum-free medium, pancreatic cell differentiation
Assay type: cell-based, human
Details: Activin A at 5 ng/ml, 50 ng/ml, or 100 ng/ml in serum-free medium
Excerpt: Activin is a member of the TGF-β superfamily and has various effects on diverse biological systems (Abe Y, et al. Growth Factors 2004 June; 22(2):105-10; herein incorporated by reference in its entirety). Activin A has been reported to have a role in the induction of definitive endoderm from hESCs (D'Amour, K. A., et al. (2005); herein incorporated by reference in its entirety).

B1: Activin A: member of the TGF-β superfamily (protein, UniProt P08476 311-426, looked up)
Inhibin beta A chain: GLECDGKVNICCKKQFFVSFKDIGWNDWIIAPSGYHANYCEGECPSHIAGTSGSSLSFHSTVINHYRMRGHSPFANLKSCCVPTKLRPMSMLYYDDGQNIIKKDIQNMIVEECGCS
modifications: Inhibin beta A chain
notes: member of the TGF-β superfamily
induction of pancreatic cell differentiation: cannot induce pancreatic cell differentiation
